B1: glmS ribozyme (parent)
chain: AUAAAAGCGCCAGAACUACAGAAAUGUAGUUGACGAGGAGGAGGUUUAUCGAAUUUUCGGCGGAUGCCUCCAAA

± gives the standard error. Fewer inactive variants are shown than the library holds. Some results are limits rather than exact numbers.

Settings in all cases: with glucosamine-6-phosphate
Variants of B1 are the subject of data set [1]. In words: self-cleavage kobs at 40 uM GlcN6P; higher = faster cleavage; RNA array. Summed up: (§1)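 Barcoded ribozyme variants, transcribed in situ by E. coli RNA polymerase on sequenced MiSeq chips, were followed via a hybridised Cy3 probe at 37 °C. Glucosamine-6-phosphate ranged from 40 μM to 10 mM in HEPES/KCl/Mg(OAc)2 buffer. kobs came from decay fits to per-tile medians, and kcat and KM from weighted Michaelis–Menten fits.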

The variants in data set [2] derive from B1. In words: self-cleavage kobs at 640 uM GlcN6P; higher = faster cleavage; RNA array. In a few lines:
as §1

Variants of B1 are the subject of data set [3]. In words: self-cleavage kobs at 10000 uM GlcN6P; higher = faster cleavage; RNA array. In a few lines:
as §1

The variants in data set [4] derive from B1. Put plainly: self-cleavage kobs at 2500 uM GlcN6P; higher = faster cleavage; RNA array. In a few lines: as §1
Variants of B1 are the subject of data set [5]. Put plainly: self-cleavage kobs at 160 uM GlcN6P; higher = faster cleavage; RNA array. Summed up: as §1

For the variant C11G U46G C58G C67U, in the data set with glucosamine-6-phosphate [1], the “self-cleavage kobs at 40 uM GlcN6P” value is 0.000158 ± 4.6e-05 s⁻¹. Besides, the “self-cleavage kobs at 640 uM GlcN6P” value with glucosamine-6-phosphate [2] was 0.000483 ± 0.00015 s⁻¹. The “self-cleavage kobs at 10000 uM GlcN6P” value in the data set with glucosamine-6-phosphate [3] is 0.000304 ± 8.1e-05 s⁻¹.

In the case of U46G A53U C70G, the “self-cleavage kobs at 40 uM GlcN6P” value in the data set with glucosamine-6-phosphate [1] was found to be 5.33e-05 ± 2.4e-05 s⁻¹. Besides, the “self-cleavage kobs at 2500 uM GlcN6P” value with glucosamine-6-phosphate [4] stood at 0.000254 ± 7.7e-05 s⁻¹. Besides, in the data set with glucosamine-6-phosphate [3], the “self-cleavage kobs at 10000 uM GlcN6P” value was found to be 0.000165 ± 4e-05 s⁻¹.

Turning to A36G G41A, in the data set with glucosamine-6-phosphate [1], the “self-cleavage kobs at 40 uM GlcN6P” value was below 1e-05 s⁻¹. The “self-cleavage kobs at 160 uM GlcN6P” value in the data set with glucosamine-6-phosphate [5] was below 1e-05 s⁻¹. In addition, the “self-cleavage kobs at 640 uM GlcN6P” value with glucosamine-6-phosphate [2] was below 1e-05 s⁻¹. For the same variant, the “self-cleavage kobs at 2500 uM GlcN6P” value with glucosamine-6-phosphate [4] was below 1e-05 s⁻¹. Further, in the data set with glucosamine-6-phosphate [3], the “self-cleavage kobs at 10000 uM GlcN6P” value is below 1e-05 s⁻¹.

As to C11A A33U U54A, the “self-cleavage kobs at 40 uM GlcN6P” value with glucosamine-6-phosphate [1] was below 1e-05 s⁻¹.

With G7A A14G U49C, the “self-cleavage kobs at 40 uM GlcN6P” value in the data set with glucosamine-6-phosphate [1] is below 1e-05 s⁻¹. The “self-cleavage kobs at 10000 uM GlcN6P” value with glucosamine-6-phosphate [3] was below 1e-05 s⁻¹.

As for A12C A14G, the “self-cleavage kobs at 40 uM GlcN6P” value in the data set with glucosamine-6-phosphate [1] is 0.00067 ± 0.00016 s⁻¹. For the same variant, the “self-cleavage kobs at 160 uM GlcN6P” value in the data set with glucosamine-6-phosphate [5] was found to be 0.00156 ± 0.00021 s⁻¹. Further, the “self-cleavage kobs at 640 uM GlcN6P” value with glucosamine-6-phosphate [2] is 0.00653 ± 0.0012 s⁻¹. Further, the “self-cleavage kobs at 2500 uM GlcN6P” value with glucosamine-6-phosphate [4] worked out at 0.0128 ± 0.0023 s⁻¹. The “self-cleavage kobs at 10000 uM GlcN6P” value with glucosamine-6-phosphate [3] worked out at 0.0484 ± 0.011 s⁻¹.

Turning to A6C A14C A39G C50A, in the data set with glucosamine-6-phosphate [1], the “self-cleavage kobs at 40 uM GlcN6P” value was below 1e-05 s⁻¹.

Take G13A G51C: the “self-cleavage kobs at 40 uM GlcN6P” value with glucosamine-6-phosphate [1] is below 1e-05 s⁻¹. Further, the “self-cleavage kobs at 160 uM GlcN6P” value with glucosamine-6-phosphate [5] was below 1e-05 s⁻¹. Also, the “self-cleavage kobs at 10000 uM GlcN6P” value with glucosamine-6-phosphate [3] is below 1e-05 s⁻¹.

G43C G62C: in the data set with glucosamine-6-phosphate [1], the “self-cleavage kobs at 40 uM GlcN6P” value is below 1e-05 s⁻¹. Also, the “self-cleavage kobs at 160 uM GlcN6P” value with glucosamine-6-phosphate [5] is below 1e-05 s⁻¹. Moreover, in the data set with glucosamine-6-phosphate [2], the “self-cleavage kobs at 640 uM GlcN6P” value was below 1e-05 s⁻¹. Also, the “self-cleavage kobs at 2500 uM GlcN6P” value with glucosamine-6-phosphate [4] is below 1e-05 s⁻¹.

On to C8U, for which the “self-cleavage kobs at 40 uM GlcN6P” value in the data set with glucosamine-6-phosphate [1] was below 1e-05 s⁻¹. In addition, in the data set with glucosamine-6-phosphate [5], the “self-cleavage kobs at 160 uM GlcN6P” value is below 1e-05 s⁻¹. Also, the “self-cleavage kobs at 640 uM GlcN6P” value with glucosamine-6-phosphate [2] was below 1e-05 s⁻¹. For the same variant, in the data set with glucosamine-6-phosphate [4], the “self-cleavage kobs at 2500 uM GlcN6P” value was below 1e-05 s⁻¹.

Turning to C34A U57C, the “self-cleavage kobs at 40 uM GlcN6P” value with glucosamine-6-phosphate [1] was below 1e-05 s⁻¹. For the same variant, the “self-cleavage kobs at 160 uM GlcN6P” value with glucosamine-6-phosphate [5] was below 1e-05 s⁻¹. For the same variant, in the data set with glucosamine-6-phosphate [4], the “self-cleavage kobs at 2500 uM GlcN6P” value is below 1e-05 s⁻¹. The “self-cleavage kobs at 10000 uM GlcN6P” value in the data set with glucosamine-6-phosphate [3] was below 1e-05 s⁻¹.

Regarding U55A U57C U69C C70U, the “self-cleavage kobs at 40 uM GlcN6P” value with glucosamine-6-phosphate [1] was below 1e-05 s⁻¹.

Regarding C10G C50U U54G U56G, the “self-cleavage kobs at 40 uM GlcN6P” value with glucosamine-6-phosphate [1] is below 1e-05 s⁻¹. The “self-cleavage kobs at 10000 uM GlcN6P” value with glucosamine-6-phosphate [3] is below 1e-05 s⁻¹.

As to G29C A42C G43C U54A, the “self-cleavage kobs at 40 uM GlcN6P” value with glucosamine-6-phosphate [1] is below 1e-05 s⁻¹.

In the case of G63U A64G, the “self-cleavage kobs at 40 uM GlcN6P” value with glucosamine-6-phosphate [1] is below 1e-05 s⁻¹. Besides, in the data set with glucosamine-6-phosphate [5], the “self-cleavage kobs at 160 uM GlcN6P” value was below 1e-05 s⁻¹. Moreover, in the data set with glucosamine-6-phosphate [2], the “self-cleavage kobs at 640 uM GlcN6P” value is below 1e-05 s⁻¹. Besides, the “self-cleavage kobs at 10000 uM GlcN6P” value with glucosamine-6-phosphate [3] is below 1e-05 s⁻¹.

Take A6U C11G G29C U45C: the “self-cleavage kobs at 40 uM GlcN6P” value with glucosamine-6-phosphate [1] was below 1e-05 s⁻¹.

For G41C C70G, the “self-cleavage kobs at 40 uM GlcN6P” value with glucosamine-6-phosphate [1] is 0.0028 ± 0.00025 s⁻¹. The “self-cleavage kobs at 160 uM GlcN6P” value with glucosamine-6-phosphate [5] amounted to 0.00588 ± 0.00089 s⁻¹. The “self-cleavage kobs at 640 uM GlcN6P” value with glucosamine-6-phosphate [2] is 0.023 ± 0.0035 s⁻¹. For the same variant, in the data set with glucosamine-6-phosphate [4], the “self-cleavage kobs at 2500 uM GlcN6P” value was 0.0672 ± 0.025 s⁻¹.

Take C16A U57G: the “self-cleavage kobs at 40 uM GlcN6P” value with glucosamine-6-phosphate [1] is below 1e-05 s⁻¹.

Consider A48C A52C, for which the “self-cleavage kobs at 40 uM GlcN6P” value with glucosamine-6-phosphate [1] was below 1e-05 s⁻¹. The “self-cleavage kobs at 160 uM GlcN6P” value with glucosamine-6-phosphate [5] was below 1e-05 s⁻¹. Moreover, in the data set with glucosamine-6-phosphate [2], the “self-cleavage kobs at 640 uM GlcN6P” value is below 1e-05 s⁻¹. Also, in the data set with glucosamine-6-phosphate [4], the “self-cleavage kobs at 2500 uM GlcN6P” value was below 1e-05 s⁻¹. Also, the “self-cleavage kobs at 10000 uM GlcN6P” value with glucosamine-6-phosphate [3] was below 1e-05 s⁻¹.

On to A42G G44U, for which the “self-cleavage kobs at 40 uM GlcN6P” value with glucosamine-6-phosphate [1] is below 1e-05 s⁻¹. For the same variant, the “self-cleavage kobs at 160 uM GlcN6P” value with glucosamine-6-phosphate [5] is below 1e-05 s⁻¹. Further, the “self-cleavage kobs at 10000 uM GlcN6P” value with glucosamine-6-phosphate [3] was 3.58e-05 ± 1.2e-05 s⁻¹.

As for A15G G38A A42G, in the data set with glucosamine-6-phosphate [1], the “self-cleavage kobs at 40 uM GlcN6P” value was below 1e-05 s⁻¹. For the same variant, in the data set with glucosamine-6-phosphate [5], the “self-cleavage kobs at 160 uM GlcN6P” value was below 1e-05 s⁻¹. The “self-cleavage kobs at 640 uM GlcN6P” value with glucosamine-6-phosphate [2] is below 1e-05 s⁻¹.

Regarding G9C G59U, the “self-cleavage kobs at 40 uM GlcN6P” value with glucosamine-6-phosphate [1] is below 1e-05 s⁻¹. In addition, in the data set with glucosamine-6-phosphate [5], the “self-cleavage kobs at 160 uM GlcN6P” value is below 1e-05 s⁻¹. Also, the “self-cleavage kobs at 640 uM GlcN6P” value in the data set with glucosamine-6-phosphate [2] was below 1e-05 s⁻¹. The “self-cleavage kobs at 2500 uM GlcN6P” value in the data set with glucosamine-6-phosphate [4] is below 1e-05 s⁻¹.

A33C U49C C50U: in the data set with glucosamine-6-phosphate [1], the “self-cleavage kobs at 40 uM GlcN6P” value was below 1e-05 s⁻¹. Also, the “self-cleavage kobs at 10000 uM GlcN6P” value with glucosamine-6-phosphate [3] is below 1e-05 s⁻¹.
